From patent US20240158512A1 (TRUEBINDING, published 2024) come the findings set out here.

Assay [1] has as its target T1, Galectin-3 (UniProt P17931 1-250, limits assumed).
T1 construct: Target of the anti-Gal3 antibody TB006; also called Gal3; GAL3
Nature of the assay: BLI; after 3 freeze/thaws, 25% vol. of container. Background: In BLI a coated tip is dipped into the sample, and binding shifts an interference pattern.

In assay [2] the target is T1, Galectin-3. The experiment in a line: ELISA (Biological Activity); long-term stability 5 C, 0 months.
Assay [3] addresses T1, Galectin-3. Nature of the assay: BLI; after 3 freeze/thaws, 100% vol. of container.
Assay [4] deals with T1, Galectin-3. The experiment in a line: BLI; after -80 C for 18 months.
Assay [5] addresses T1, Galectin-3. The experiment in a line: BLI; after 4 C for 9 months.
Assay [6] deals with T1, Galectin-3. The experiment in a line: BLI; after 5 freeze/thaws, 100% vol. of container.
The target of assay [7] is T1, Galectin-3. The experiment in a line: BLI; after 25 C for 14 days.
Assay [8] addresses T1, Galectin-3. The experiment in a line: ELISA blocking assay; TB006 diluted to 0.31 mg/mL in 0.9% NaCl, 25 C, 0.5 h; blocked partner not named. In general terms: In an ELISA, binding on a coated surface is turned into a signal by an enzyme label.
Assay [9] addresses T1, Galectin-3. The experiment in a line: BLI; after 40 C for 28 days.
For assay [10], the target named is T1, Galectin-3. Nature of the assay: BLI (Binding Activity); accelerated stability 25 C/60% RH, 3 months.
The target of assay [11] is T1, Galectin-3. The experiment in a line: ELISA (Biological Activity); accelerated stability 25 C/60% RH, 3 months.
Assay [12] concerns the target T1, Galectin-3. The experiment in a line: BLI; after -80 C for 3 months.
Assay [13] deals with T1, Galectin-3. Nature of the assay: BLI; after 25 C for 6 months.
The target of assay [14] is T1, Galectin-3. Nature of the assay: ELISA (Biological Activity); accelerated stability 25 C/60% RH, 0 months.
Assay [15] concerns the target T1, Galectin-3. The experiment in a line: BLI (Binding Activity); long-term stability 5 C, 1 month.
Assay [16] concerns the target T1, Galectin-3. Nature of the assay: BLI; after 5 freeze/thaws, 25% vol. of container.
Assay [17] deals with T1, Galectin-3. The experiment in a line: BLI; after 40 C for 7 days.
Assay [18] addresses T1, Galectin-3. The experiment in a line: BLI (Binding Activity); long-term stability 5 C, 3 months.
Assay [19] concerns the target T1, Galectin-3. The experiment in a line: BLI; after -80 C for 1 month.
Assay [20] deals with T2, Galectin-3 (Gal3) (UniProt P17931 1-250, limits assumed).
T2 construct: Target of TB006
The experiment in a line: BLI; 50 mg/mL DS after 25 C for 1 month.

In assay [21] the target is T2, Galectin-3 (Gal3). The experiment in a line: BLI; 50 mg/mL DS after 25 C for 6 months.
The target in assay [22] is T2, Galectin-3 (Gal3). Nature of the assay: BLI; 50 mg/mL DS after agitation for 3 days.
In assay [23] the target is T2, Galectin-3 (Gal3). The experiment in a line: BLI; 50 mg/mL DS after 4 C for 6 months.
Assay [24] deals with T2, Galectin-3 (Gal3). The experiment in a line: BLI; 50 mg/mL DS after 40 C for 21 days.
Assay [25] has as its target T2, Galectin-3 (Gal3). The experiment in a line: BLI; 20 mg/mL DS after 4 C for 12 months. The essentials: (§1)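 Binding to Galectin-3 was assessed by biolayer interferometry and given as the dissociation constant (Kd). Samples were tested at time zero or after stress, namely agitation (shear), repeated freeze-thaw cycles, or storage at set temperatures. The storage conditions included a 40° C stress test and cryogenic storage.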

Assay [26] has as its target T2, Galectin-3 (Gal3). Nature of the assay: BLI; 20 mg/mL DS, time 0 control. In short, it runs like this: as §1
In assay [27] the target is T2, Galectin-3 (Gal3). Nature of the assay: BLI; 20 mg/mL DS after -80 C for 3 months.
The target in assay [28] is T2, Galectin-3 (Gal3). The experiment in a line: BLI; 20 mg/mL DS after -80 C for 9 months.
For assay [29], the target named is T2, Galectin-3 (Gal3). The experiment in a line: BLI; 20 mg/mL DS after -80 C for 18 months. The essentials: as §1
The target in assay [30] is T2, Galectin-3 (Gal3). The experiment in a line: BLI; 20 mg/mL DS after agitation for 1 day. The essentials: as §1
Assay [31] concerns the target T2, Galectin-3 (Gal3). The experiment in a line: BLI; 20 mg/mL DS after 25 C for 6 months. In short, it runs like this: as §1
For assay [32], the target named is T2, Galectin-3 (Gal3). Nature of the assay: BLI; 50 mg/mL DS after -80 C for 12 months.
The target in assay [33] is T2, Galectin-3 (Gal3). The experiment in a line: BLI; 50 mg/mL DS after -80 C for 1 month.

Several values for one entry are separate records, joined by “and”; a condition that tells them apart may be missing. Equal values may be shown once.

T1 sequence (P17931 whole entry): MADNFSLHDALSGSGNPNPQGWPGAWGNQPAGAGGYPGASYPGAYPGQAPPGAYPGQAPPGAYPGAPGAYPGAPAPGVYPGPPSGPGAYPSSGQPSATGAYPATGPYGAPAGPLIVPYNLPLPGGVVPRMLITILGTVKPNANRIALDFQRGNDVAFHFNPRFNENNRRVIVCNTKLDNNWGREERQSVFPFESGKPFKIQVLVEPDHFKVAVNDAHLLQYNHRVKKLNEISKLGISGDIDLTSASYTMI
T2 sequence (P17931 whole entry): as above

B1: TB006 (antibody, human IgG4 S228P, kappa, V domains shown)
VH: QVQLVQSGAEVKKPGASVKVSCKASGYSFTNYYMHWVRQAPGQRLEWMGWIYPGSGNTNYNEKFQGRVTITADTSASTAYMELSSLRSEDTAVYYCSTAPGGFDVWGQGTTVTVSS
VL: DIVMTQTPLSLSVTPGQPASISCKSSKSLLHSDGITYLYWYLQKPGQSPQLLIYRMSNLASGVPDRFSGSGSGTDFTLKISRVEAEDVGVYYCAQMLEFPLTFGQGTKLEIKR
notes: Tested as formulated drug substance or drug product in 20 mM L-histidine, 5 mM methionine, 100 mM NaCl, 0.02% polysorbate 80, pH 5.8, or diluted in 0.9% saline; also called 4A11.H3L1; IMT006a
The term Kd denotes the concentration at which binding is half-saturated. A lower Kd goes with a tighter complex. A word on the IC50: it is the concentration at which inhibition is half-maximal. Turning to B1, the Kd worked out at 2.8 nM with Galectin-3 [1]; 2.7 nM with Galectin-3 [3]; 2 nM in the assay with Galectin-3 [4]; 2.2 nM with Galectin-3 [5]; 2.6 nM in the assay with Galectin-3 [6]; 2.6 nM with Galectin-3 [7]. In addition, the equilibrium dissociation constant (Kd) with Galectin-3 [9] came out at 3.1 nM; with Galectin-3 [10] it was 3.1 nM; in the assay with Galectin-3 [12], 3.3 nM; in the assay with Galectin-3 [13], 2.6 nM; with Galectin-3 [15] it was 2.5 nM; with Galectin-3 [16], 2.9 nM. The dissociation constant Kd with Galectin-3 [17] was determined as 2.4 nM; with Galectin-3 [18], 3 nM; with Galectin-3 [19], 3.2 nM. The IC50 is 2.5 µg/mL with Galectin-3 [2]; 1.66 µg/mL and 1.34 µg/mL with Galectin-3 [8]; 1.5 µg/mL in the assay with Galectin-3 [11]; 2.5 µg/mL with Galectin-3 [14].

B2: TB006 (antibody, human IgG4 S228P, kappa, V domains shown)
VH: QVQLVQSGAEVKKPGASVKVSCKASGYSFTNYYMHWVRQAPGQRLEWMGWIYPGSGNTNYNEKFQGRVTITADTSASTAYMELSSLRSEDTAVYYCSTAPGGFDVWGQGTTVTVSS
VL: DIVMTQTPLSLSVTPGQPASISCKSSKSLLHSDGITYLYWYLQKPGQSPQLLIYRMSNLASGVPDRFSGSGSGTDFTLKISRVEAEDVGVYYCAQMLEFPLTFGQGTKLEIKR
notes: Full antibody tested as drug substance (DS) in 20 mM L-histidine, 5 mM methionine, 100 mM NaCl, 0.02% polysorbate-80, pH 5.8; also called 4A11.H3L1; IMT006a
As for B2, the dissociation constant Kd with Galectin-3 (Gal3) [20] came to 2.2 nM; in the assay with Galectin-3 (Gal3) [21] it was 2.4 nM; with Galectin-3 (Gal3) [22] it was 3.7 nM; with Galectin-3 (Gal3) [23], 2.1 nM; with Galectin-3 (Gal3) [24], 3 nM; in the assay with Galectin-3 (Gal3) [25], 2.7 nM. For the same molecule, the dissociation constant Kd in the assay with Galectin-3 (Gal3) [26] amounted to 2.9 nM; with Galectin-3 (Gal3) [27] it was 3.5 nM; with Galectin-3 (Gal3) [28] it was 1.7 nM; with Galectin-3 (Gal3) [29] it was 4.2 nM; with Galectin-3 (Gal3) [30], 3.1 nM; with Galectin-3 (Gal3) [31] it was 3.4 nM. Moreover, the dissociation constant Kd with Galectin-3 (Gal3) [32] was determined as 3.5 nM; in the assay with Galectin-3 (Gal3) [33], 2.3 nM.
